Test [1] concerns mouse Lewis Lung cancer LL/2 cells. Kind of test: LL/2 syngeneic mouse model of lung cancer. The class given is in vivo. The note with it: LL/2 s.c. in C57BL/6 mice; 0.4 mg/kg i.p. 3 times a week for 3 weeks, started with tumor cell inoculation; by day 21. Here is the method: Methodology used (Syngeneic Mouse Models of lung, colon and pancreatic cancer): To investigate the anti-tumor effects of HDM2-specific antibodies on lung, colon and pancreatic tumors in vivo, three well-known syngeneic mouse models of lung, colon and pancreatic cancer were used (Sharma et al., 1999, J. Immunol. 163 (9):5020-5028; McIntyre, 2015, Bioassays 37(8):909-920; Li, et al., 2015, Sci. Rep. 5:7856). Subcutaneous tumors were prepared by implanting either mouse Lewis Lung cancer LL/2 cells (2.5×10^5 cells/mouse), mouse colon cancer MC-38 cells (5×10^5 cells/mouse) or mouse pancreatic cancer Panc-2 cells (2×10^6 cells/mouse) in the right flanks of 8-week-old female C57BL/6 mice (n=6-7). The mice were returned to their respective cages after tumor implantation. From day 7 after tumor implantation, the tumor volumes were measured 2 times/week with a digital caliper. In the case of MC-38 and Panc-2 study, treatment started when the tumors reached an average of 70-80 mm^3. In the case of LL/2 study, tumor cell inoculation and treatment were initiated simultaneously. Mice were micro-chipped and registered following tumor implantation. […]

Test [2] deals with HeLa cervical cancer cells. Put plainly: Cell-ELISA on intact cells. The class given is cell-based, human. The note with it: mAb 5 μg/mL. As for the experimental part:
In a 96-well microplate, 15,000 cells/well were cultured overnight. The next day, unbound cells were washed off with sterile 1×PBS. The cells in each well were fixed with freshly prepared 4% buffered paraformaldehyde (pH 7.2) for 1 hour, followed by 3 washes with 1×PBS. The wells were then blocked with 5% BSA in PBS (100 μl/well) for 2 hours at room temperature. Microplate wells were then washed 5 times with 300 μl of ice cold 1×PBS. Monoclonal antibodies NMC-H103 (VH4/VK3) or NMC-C303 at 5 μg/mL in 1% BSA/PBS were then incubated with various cancer cells for 2 hours at room temperature. Wells were then washed with 300 μl of ice-cold 1×PBS for 5 times and corresponding secondary antibody HRP-GaH F(ab′)2 diluted 1:2000 or 1:4000 in PBS with 1% BSA were added at 100 μl/well for 1 hour at room temperature followed by washing 5 times with 300 μl of ice-cold 1×PBS. TMB Substrate Solution (1-Step™ Ultra TMB-ELISA, ThermoFisher, Cat. No. 34028) was then added at 50 μL to each microplate well and incubated at room temperature for 30 minutes. The reaction was stopped by addition of 50 μL of stop solution (ThermoFisher, Cat. No. SS04) to each well and absorbance of each well was measured at OD450 nm. The absorbance value of each experimental well was corrected for the absorbance value obtained from wells treated with isotype-identical mAbs included in each experiment.

The subject of test [3] is human lung cancer A549 cells. Put plainly: A549 tumors in NSG mice with or without Hu-PBMCs. The format is in vivo. The note with it: 1 i.p. dose 10 mg/kg, n=4. Here is the method: Subcutaneous tumors were prepared by implanting either mouse colon MC-38 cells (5×10^5 cells/mouse), human lung cancer A549 cells (5×10^6 cells/mouse) or mouse lung cancer M109 cells (0.5×10^5 cells/mouse) in the right flanks of NOD scid gamma mice (NSG: NOD.Cg-Prkdc^scidIl2rg^tm1Wjl/SzJ) purchased from Jacksons Laboratory. From day 7 after tumor implantation, the tumor volumes were measured 2 times/week with a digital caliper. In the case of mouse colon MC-38 cells and human lung cancer A549 cells study in NSG mice, once tumors reached an average volume of 300-400 mm^3, mice were randomly divided into 3 groups (n=4) and 7×10^6 human PBMCs (Stem Cell Technologies Cat #70025) was injected into the tail vein of mice in groups 1 and 3. Seven days later, in the case of mouse colon MC-38 cells study, mAb NMC-C303 antibody (10 mg/kg) was injected intraperitoneally (i.p.) to mice in groups 2 and 3 and human isotype control antibody (BioXCell BP02) into mice in group 1 on days 33 and 35 post tumor inoculation. In the case of human lung cancer A549 cells study, seven days post PBMC injection, mice in group 2 and 3 received 1 intraperitoneal injection of mAb NMC-H103 (VH4/VK3) (10 mg/kg) while mice in group 1 received 1 injection of human isotype control antibody (BioXCell BP02) and tumors were measure 5 days later. […]

B1: NMC-204: mouse monoclonal antibody of the IgG3 isotype that binds to NMC-P2 (SEQ ID NO:2); VH SEQ ID NO:38, VL SEQ ID NO:39 (antibody, V domains shown)
VH: EVQLQESGSVLVRPGASVKLSCKASGDTLSGSWMHWAMQRPGQGLEWIGEIHLNRGTTNYNEKFKGKATVTVDTSSSTAYVDLSSLTSEDSAVYYCARSPGFAYWGQGTLVTVSA
VL: GIVMTQAAPSVPVTPGESVSISCRSSKSLLHSNGNSYLYWFLQRPGQSPQLLIYRMSNLASGVPDRFSGSGSGTAFTLRITRVEAEDVGVYYCMQHLEYPFTFGSGTKLEIK
modifications: mAb NMC-204 Heavy Chain Variable Region; mAb NMC-204 Light Chain Variable Region
B1: in test [1], the tumor volume is reported as 1446 mm^3.

B2: NMC-H103 (VH4/VK3): humanized NMC-103 variant, human IgG1, VH4 (SEQ ID NO:299) and VK3 (SEQ ID NO:297) (antibody, V domains shown)
VH: EVQLVESGGGLVQPGPSLRLSCTTSGFTFTHYYMSWVRQAPGKGLEWLGFIRNKAKGYTAEYSASVKGRFTISRDNSKSTLYLQMNSLRAEDTAVYYCARDIGDNWGQGTLVTVSS
VL: DIVMTQTPLSSPVTLGQPASISCRSSKNLLHSNGITYLYWYLQKPGQSPQLLISRVSNLASGVPDRFSGSESGTDFTLKISRVEAEDVGVYFCAQLLELPYTFGGGTKVEIK
modifications: human IgG1 constant regions lacking entries; mAb NMC-H103.VH4Heavy Chain Variable Region; mAb NMC-H103.VK3Light Chain Variable Region
Turning to B2, the “binding to intact, un-permeabilized cells, cell-based ELISA” value in test [2] was “binding”. For the same molecule, the average tumor volume in test [3] (NSG mice in presence of Hu-PBMCs) is 784 mm^3; in test [3] (NSG mice in the absence of Hu-PBMCs), 1367 mm^3.

The values above are taken from patent US20220098328A1, “ANTIBODIES TO M(H)DM2/4 AND THEIR USE IN DIAGNOSING AND TREATING CANCER” (NomoCan Pharmaceuticals LLC, priority 2017, published 2022).
